The source of these data is paper PMC3032639.

Assay [1] has as its target TraB C-terminal domain (TraBCT) (E. coli (plasmid pKM101)). The assay can be described thus: SAXS; beamline ID02 (ESRF), buffer GFsol, 20°C; TraBCT 2.1-8.2 mg/ml, LvhB4 2-8.9 mg/ml; molecular mass from forward scattering I(0), absolute calibration with water; self-association.
Assay [2] has the same target. Briefly: SEC.
The target in assay [3] is TraB N-terminal domain (TraBNT), membrane-extracted form (E. coli (plasmid pKM101)) (UniProt P41067). Briefly: SAXS; beamline X33 (EMBL-Hamburg), buffer GFmb; TraBFL 3-13.5 mg/ml, TraBNT 1.3-8.2 mg/ml; molecular mass from forward scattering I(0), calibrated with BSA; self-association.
Assay [4] shares this target. The assay can be described thus: SEC. (In general: Size exclusion chromatography separates by hydrodynamic size, large species first.)
Assay [5] deals with TraB full-length (TraBFL), the VirB4 homolog encoded by the E. coli pKM101 plasmid, membrane-extracted form (E. coli (plasmid pKM101)) (UniProt P41067). Briefly: SAXS; beamline X33 (EMBL-Hamburg), buffer GFmb; TraBFL 3-13.5 mg/ml, TraBNT 1.3-8.2 mg/ml; molecular mass from forward scattering I(0), calibrated with BSA; self-association.
For assay [6] the target is unchanged. Briefly: SEC.

For the substance “TraB C-terminal domain (TraBCT) (domain or fragment)”, the stoichiometry N in assay [1] and in assay [2] was 2 in each case.

In the case of “TraB N-terminal domain (TraBNT), membrane-extracted form (from UniProt P41067 1-442) (domain or fragment)”, the stoichiometry N in assay [3] and in assay [4] was 2 throughout.

In the case of “TraB full-length (TraBFL), the VirB4 homolog encoded by the E. coli pKM101 plasmid, membrane-extracted form (from UniProt P41067 1-475) (natural protein)”, the stoichiometry N in assay [5] and in assay [6] was 2 throughout.

One may read the stoichiometry N as a count of units in the complex or per binding partner.
